Data taken from IntAct's records for PubMed 29892012.

What was measured:
traf4_human TRAF4 = target: T1, traf4_human TRAF4 (UniProt Q9BUZ4)
T1 sequence: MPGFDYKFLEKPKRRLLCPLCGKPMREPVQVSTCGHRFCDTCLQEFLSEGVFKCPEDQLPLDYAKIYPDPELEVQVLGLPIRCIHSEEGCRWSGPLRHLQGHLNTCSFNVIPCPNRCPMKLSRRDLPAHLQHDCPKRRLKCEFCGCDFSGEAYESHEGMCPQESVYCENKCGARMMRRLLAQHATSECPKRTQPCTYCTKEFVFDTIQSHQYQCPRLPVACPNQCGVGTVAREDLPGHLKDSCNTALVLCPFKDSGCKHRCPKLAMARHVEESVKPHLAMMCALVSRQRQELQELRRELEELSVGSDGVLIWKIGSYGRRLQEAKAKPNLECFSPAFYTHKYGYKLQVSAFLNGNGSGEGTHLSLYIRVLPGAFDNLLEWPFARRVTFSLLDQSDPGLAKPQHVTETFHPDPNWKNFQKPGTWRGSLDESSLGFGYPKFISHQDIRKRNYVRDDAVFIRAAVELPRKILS

traf2_human TRAF2 = target: T2, traf2_human TRAF2 (UniProt Q12933)
T2 sequence: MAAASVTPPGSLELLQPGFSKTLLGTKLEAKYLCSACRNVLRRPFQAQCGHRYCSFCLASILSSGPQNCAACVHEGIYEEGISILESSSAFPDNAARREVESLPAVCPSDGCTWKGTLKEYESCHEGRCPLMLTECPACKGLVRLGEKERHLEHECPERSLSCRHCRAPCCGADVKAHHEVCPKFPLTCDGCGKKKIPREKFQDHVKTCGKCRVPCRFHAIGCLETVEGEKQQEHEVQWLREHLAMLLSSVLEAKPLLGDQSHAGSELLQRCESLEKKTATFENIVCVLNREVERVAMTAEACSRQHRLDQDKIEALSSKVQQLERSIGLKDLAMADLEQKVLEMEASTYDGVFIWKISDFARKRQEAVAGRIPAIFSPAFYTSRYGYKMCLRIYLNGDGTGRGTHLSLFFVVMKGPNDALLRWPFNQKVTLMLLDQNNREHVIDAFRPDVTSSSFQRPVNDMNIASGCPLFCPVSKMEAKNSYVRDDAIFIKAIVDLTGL

dctd_human DCTD = target: T3, dctd_human DCTD (UniProt P32321)
T3 sequence: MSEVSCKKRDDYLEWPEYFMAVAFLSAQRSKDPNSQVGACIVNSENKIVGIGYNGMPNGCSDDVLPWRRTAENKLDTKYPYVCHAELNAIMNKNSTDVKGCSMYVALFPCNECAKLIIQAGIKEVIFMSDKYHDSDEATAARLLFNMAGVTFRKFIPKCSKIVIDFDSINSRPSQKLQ

goga2_human GOLGA2 = target: T4, goga2_human GOLGA2 (UniProt Q08379)
T4 sequence: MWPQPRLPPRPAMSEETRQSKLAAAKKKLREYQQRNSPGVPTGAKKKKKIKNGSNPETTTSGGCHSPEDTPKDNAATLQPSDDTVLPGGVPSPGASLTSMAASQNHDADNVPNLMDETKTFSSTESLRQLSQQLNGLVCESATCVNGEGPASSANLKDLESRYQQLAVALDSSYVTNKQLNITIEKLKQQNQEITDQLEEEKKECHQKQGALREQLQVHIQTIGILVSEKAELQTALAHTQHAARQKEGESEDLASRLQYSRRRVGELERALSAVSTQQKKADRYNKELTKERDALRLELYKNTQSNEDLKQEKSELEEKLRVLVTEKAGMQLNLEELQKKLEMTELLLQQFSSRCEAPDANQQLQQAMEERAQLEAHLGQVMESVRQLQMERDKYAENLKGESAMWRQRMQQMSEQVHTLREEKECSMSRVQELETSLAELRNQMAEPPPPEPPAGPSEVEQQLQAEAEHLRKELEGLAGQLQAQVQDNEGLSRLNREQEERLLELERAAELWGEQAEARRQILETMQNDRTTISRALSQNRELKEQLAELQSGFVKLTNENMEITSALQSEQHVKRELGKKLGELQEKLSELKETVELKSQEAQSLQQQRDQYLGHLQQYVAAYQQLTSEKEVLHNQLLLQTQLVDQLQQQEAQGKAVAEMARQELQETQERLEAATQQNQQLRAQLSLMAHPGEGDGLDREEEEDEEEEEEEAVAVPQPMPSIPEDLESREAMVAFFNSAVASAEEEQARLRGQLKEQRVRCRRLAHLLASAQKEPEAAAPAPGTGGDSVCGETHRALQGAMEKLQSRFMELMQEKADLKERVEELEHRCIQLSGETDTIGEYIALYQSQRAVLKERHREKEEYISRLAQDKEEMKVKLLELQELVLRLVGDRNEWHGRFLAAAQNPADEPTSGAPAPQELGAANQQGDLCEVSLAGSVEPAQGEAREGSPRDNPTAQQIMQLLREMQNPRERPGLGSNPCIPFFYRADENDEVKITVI

lonf1_human LONRF1 = target: T5, lonf1_human LONRF1 (UniProt Q17RB8)
T5 sequence: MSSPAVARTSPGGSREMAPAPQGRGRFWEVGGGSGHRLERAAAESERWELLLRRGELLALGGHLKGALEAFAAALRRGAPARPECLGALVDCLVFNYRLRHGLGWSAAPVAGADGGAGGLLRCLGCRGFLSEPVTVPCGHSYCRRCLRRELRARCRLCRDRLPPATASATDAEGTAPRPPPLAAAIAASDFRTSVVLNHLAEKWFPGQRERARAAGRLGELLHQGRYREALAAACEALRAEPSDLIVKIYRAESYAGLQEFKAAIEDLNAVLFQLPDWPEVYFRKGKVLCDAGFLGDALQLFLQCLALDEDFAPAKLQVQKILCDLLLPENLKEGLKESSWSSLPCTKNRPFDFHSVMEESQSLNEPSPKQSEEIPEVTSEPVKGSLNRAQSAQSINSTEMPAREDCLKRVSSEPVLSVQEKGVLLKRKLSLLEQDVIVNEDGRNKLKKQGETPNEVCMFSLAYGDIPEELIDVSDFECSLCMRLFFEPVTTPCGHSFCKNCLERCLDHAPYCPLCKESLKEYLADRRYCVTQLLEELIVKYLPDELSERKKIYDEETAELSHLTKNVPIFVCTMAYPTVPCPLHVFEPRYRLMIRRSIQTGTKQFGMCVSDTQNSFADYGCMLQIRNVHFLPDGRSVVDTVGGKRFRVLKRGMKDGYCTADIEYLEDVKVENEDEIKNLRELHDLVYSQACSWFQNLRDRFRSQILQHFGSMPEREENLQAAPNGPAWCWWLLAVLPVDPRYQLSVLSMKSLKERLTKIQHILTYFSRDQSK

Measured: effect of a mutation on the interaction

Golgi reassembly-stacking protein 2 (Homo sapiens) (from UniProt Q9H8Y8) L320R
with no effect: all assays above
